Assays:
[1] = molecular target: T1, human CD3 expressed on cells (Jurkat cells; human T-cells of PBMC) (human, UniProt P09693 23-182; P20963 22-164); experiment: cell-based or functional assay
[2] = molecular target: cynomolgus monkey CD3 expressed on monkey T-cells (PBMCs) (cynomolgus monkey, UniProt Q95LI5 22-198; Q95LI8 22-171); experiment: cell-based or functional assay
[3] = molecular target: T1, human CD3 expressed on cells (Jurkat …); experiment: FACS titration on Jurkat cells (CD3+ human T-cell line)
How it was run: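 Jurkat cells (2×10⁵/well) incubated 30 min on ice with serially diluted antibodies, then 30 min with secondary antibody. Viable cells gated by forward/side scatter in flow cytometry; EC₅₀ from 4-parameter non-linear regression of binding titration.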

[4] = molecular target: T1, human CD3 expressed on cells (Jurkat …); experiment: cell-based or functional assay; remark: listed apart in the source
[5] = molecular target: T2, cynomolgus CD3 on cynomolgus T cells (cynomolgus, UniProt Q95LI5 22-198; Q95LI8 22-171); experiment: FACS on cynomolgus T cells
T2 construct: whole, on cells; also called Cyno T-cells; monkey T-cells
T2 sequence (Q95LI5 22-198, form in doubt, chain 1 of 2): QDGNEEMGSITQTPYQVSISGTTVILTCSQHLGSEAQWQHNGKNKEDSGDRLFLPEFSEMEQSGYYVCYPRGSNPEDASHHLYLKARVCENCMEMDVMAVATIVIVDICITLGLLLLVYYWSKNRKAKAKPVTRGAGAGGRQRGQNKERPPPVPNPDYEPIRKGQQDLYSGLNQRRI
T2 sequence (Q95LI8 22-171, form in doubt, chain 2 of 2): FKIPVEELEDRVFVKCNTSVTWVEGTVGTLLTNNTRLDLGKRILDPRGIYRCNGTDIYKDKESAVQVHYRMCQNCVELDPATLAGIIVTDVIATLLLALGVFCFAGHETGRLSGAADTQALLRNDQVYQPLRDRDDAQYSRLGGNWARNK
Description: (§1) Briefly, 2×10⁵ cells/well of human CD3-expressing Jurkat, cynomolgus T, or human PSMA-specific expressing cells were incubated with a serial dilution of bispecific antibodies for 30 min at 4° C. After incubation, cells were washed and a goat F(ab′)₂ anti-human Fcγ PE labeled secondary (Jackson Immunolabs) was added to the cells for an additional 30 min. Next, cells were washed, re-suspended in cold PBS+1% BSA and analyzed via flow cytometry on a BD FACS Canto II.
(§2) For FACS analysis, cells were gated by forward scatter height vs. forward scatter area for single events selection, followed by side and forward scatters. The EC₅₀ for cell binding titration was determined using Prism software. Values were calculated using 4-parameter non-linear regression analysis.

[6] = molecular target: T3, human CD3 on CD3-expressing cells (Jurkat, human T cells) (human, UniProt P07766 23-207; P04234 22-171); experiment: FACS on Jurkat cells
T3 construct: On cells CD3 stands within the T cell receptor complex (also gamma and zeta chains); also called human CD3 expressing Jurkat cells
T3 sequence (P07766 23-207 limits assumed, chain 1 of 2): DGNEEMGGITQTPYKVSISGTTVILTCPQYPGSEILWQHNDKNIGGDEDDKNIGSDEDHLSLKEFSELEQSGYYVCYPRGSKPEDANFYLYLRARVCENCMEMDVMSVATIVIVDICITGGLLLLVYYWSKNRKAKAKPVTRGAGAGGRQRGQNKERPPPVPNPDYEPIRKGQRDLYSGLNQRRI
T3 sequence (P04234 22-171 limits assumed, chain 2 of 2): as the sequence (Q95LI8 22-171, form in doubt, chain 2 of 2) above, with V5I, K15N, V20I, T32S, N33D, N34I, A64T, N74S, L83V, R141H counted along it
Description: as §1, §2

[7] = molecular target: T4, human PSMA on PSMA-expressing cells (human, UniProt Q04609 1-750); experiment: FACS on B16F10.9/PSMA cells
T4 construct: Cell line is named under assay or readout in each row; also called B16F10.9/hPSMA; B16F10.9/PSMA
T4 sequence (Q04609 whole entry): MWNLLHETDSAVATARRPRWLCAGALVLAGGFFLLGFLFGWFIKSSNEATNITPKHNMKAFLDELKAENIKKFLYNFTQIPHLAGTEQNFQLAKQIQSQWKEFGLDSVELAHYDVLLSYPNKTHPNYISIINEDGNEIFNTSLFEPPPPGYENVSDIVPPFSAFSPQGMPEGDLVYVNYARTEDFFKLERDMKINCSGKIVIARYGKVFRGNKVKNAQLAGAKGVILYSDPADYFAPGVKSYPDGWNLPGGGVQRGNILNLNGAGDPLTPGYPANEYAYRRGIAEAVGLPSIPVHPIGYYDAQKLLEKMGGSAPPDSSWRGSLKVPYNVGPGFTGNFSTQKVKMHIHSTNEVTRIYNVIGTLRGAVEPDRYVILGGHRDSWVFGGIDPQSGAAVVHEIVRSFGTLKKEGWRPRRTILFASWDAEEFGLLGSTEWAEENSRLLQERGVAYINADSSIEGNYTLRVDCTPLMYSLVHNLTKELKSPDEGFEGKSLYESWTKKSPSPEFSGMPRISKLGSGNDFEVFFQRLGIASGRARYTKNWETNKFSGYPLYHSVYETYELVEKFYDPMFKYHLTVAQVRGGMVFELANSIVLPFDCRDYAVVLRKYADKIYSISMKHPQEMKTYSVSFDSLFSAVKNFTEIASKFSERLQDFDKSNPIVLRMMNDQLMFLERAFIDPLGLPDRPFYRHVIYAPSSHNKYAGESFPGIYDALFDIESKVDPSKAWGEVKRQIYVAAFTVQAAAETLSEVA
Description: as §1, §2

[8] = molecular target: T4, human PSMA on PSMA-expressing cells; experiment: cell-based or functional assay
[9] = molecular target: T3, human CD3 on CD3-expressing cells …; experiment: cell-based or functional assay
[10] = molecular target: T5, soluble heterodimeric hCD3ε/δ.mFc protein (human); experiment: SPR MASS-1, 37 C, antigen-capture (hCD3ε/δ.mFc captured), antibody injected
T5 construct: also called soluble human CD3; soluble heterodimeric CD3 protein
T5 chain 1: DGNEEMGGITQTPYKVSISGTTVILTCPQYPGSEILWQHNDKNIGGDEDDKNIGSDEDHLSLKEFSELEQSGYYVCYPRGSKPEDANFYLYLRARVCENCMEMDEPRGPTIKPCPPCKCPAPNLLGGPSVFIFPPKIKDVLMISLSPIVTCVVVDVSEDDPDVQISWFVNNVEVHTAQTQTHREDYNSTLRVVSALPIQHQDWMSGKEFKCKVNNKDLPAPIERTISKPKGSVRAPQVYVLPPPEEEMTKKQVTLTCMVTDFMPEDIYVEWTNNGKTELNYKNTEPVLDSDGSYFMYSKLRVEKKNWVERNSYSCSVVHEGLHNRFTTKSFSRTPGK
T5 chain 2: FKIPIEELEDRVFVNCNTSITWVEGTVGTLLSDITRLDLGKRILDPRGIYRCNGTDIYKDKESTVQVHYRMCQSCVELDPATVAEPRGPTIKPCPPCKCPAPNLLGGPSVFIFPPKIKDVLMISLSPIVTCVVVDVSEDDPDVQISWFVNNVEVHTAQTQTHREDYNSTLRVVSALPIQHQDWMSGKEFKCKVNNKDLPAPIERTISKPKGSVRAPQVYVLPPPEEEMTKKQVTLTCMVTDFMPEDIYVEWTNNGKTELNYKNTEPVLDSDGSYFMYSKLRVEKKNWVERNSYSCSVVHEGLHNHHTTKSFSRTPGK
Description: Measurements were conducted on a Sierra Sensors MASS-1 instrument.
In the antigen-capture format, the MASS-1 high-density amine sensor surface was derivatized with a goat anti-mouse IgG2a polyclonal antibody (Southern Biotech). Soluble heterodimeric CD3 protein was captured and the respective antibodies were injected over the captured antigen.
Kinetic association (kₐ) and dissociation (kd) rate constants were determined by processing and fitting the data to a 1:1 binding model using MASS-1 AnalyserR2 curve fitting software. Binding dissociation equilibrium constants (KD) and dissociative half-lives (t_{1/2}) were calculated from the kinetic rate constants as: KD (M)=kd/kₐ; and t_{1/2} (min)=(ln 2/(60*kd).

T1 sequence (chain, as listed by the source, chain 1 of 4): as the sequence (P07766 23-207 limits assumed, chain 1 of 2) above
T1 sequence (chain, as listed by the source, chain 2 of 4): as the sequence (Q95LI8 22-171, form in doubt, chain 2 of 2) above, with V5I, K15N, V20I, T32S, N33D, N34I, A64T, N74S, L83V, R141H counted along it
T1 sequence (P09693 23-182, chain 3 of 4): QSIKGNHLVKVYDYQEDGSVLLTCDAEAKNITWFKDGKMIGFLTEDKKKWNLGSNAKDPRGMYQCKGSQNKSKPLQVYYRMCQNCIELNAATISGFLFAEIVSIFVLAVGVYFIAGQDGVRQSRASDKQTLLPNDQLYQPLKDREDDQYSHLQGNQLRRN
T1 sequence (P20963 22-164, chain 4 of 4): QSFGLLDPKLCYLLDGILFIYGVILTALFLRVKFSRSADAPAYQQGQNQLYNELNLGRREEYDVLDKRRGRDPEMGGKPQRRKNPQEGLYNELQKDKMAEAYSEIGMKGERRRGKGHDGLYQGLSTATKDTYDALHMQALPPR
Sequence of cynomolgus monkey CD3 expressed on monkey T-cells (PBMCs) (Q95LI5 22-198, chain 1 of 2): as the sequence (Q95LI5 22-198, form in doubt, chain 1 of 2) above
Sequence of cynomolgus monkey CD3 expressed on monkey T-cells (PBMCs) (Q95LI8 22-171, chain 2 of 2): as the sequence (Q95LI8 22-171, form in doubt, chain 2 of 2) above

EC50 [M] mfPBMC Proliferation [2]	EC50 [3]	EC50 [M] hPBMC Proliferation [4]	EC50 [5]	EC50 [6]	EC50 [7]	C4-2 Cell depletion EC50 [8]	TrampC2.PSMA Cell depletion EC50 [8]	T cell activation EC50 [9]	Kd [10]	T½ [10]	koff [10]	kon [10]	22RV1 Cell depletion EC50 [8]	Binder	U937 Cytotoxicity Human T-cells [1]
2.01e-12 M	3.53 nM	4.62e-12 M												H1H5788P (antibody, V domains shown, H1H: human IgG1 Fc) VH: EVQLVESGGGLVQPGRSLRLSCAASGFTFDDYTMHWVRQAPGKGLEWVSGISWNSGSIGYADSVKGRFTISRDNAKNSLYLQMNSLRAEDTALFYCAKDQSGYGHYYYGMDVWGQGTTVTVSS VL: EIVMTQSPATLSVSPGERATLSCRASQSVSSNLAWYQQKPGQAPRLLIYGASTRATDIPARFSGSGSGTEFTLTISSLQSEDFAVYHCQQYNNWPLTFGGGTKVEIK	15.4 pM
			14.2 nM	16.5 nM	2.26 nM	0.0103 nM	0.00643 nM	0.00123 nM						BSPSMA/CD3-003 (bispecific antibody, IgG4, V domains shown, modified (chimeric) IgG4 Fc domain; also called PSMA-VH-11810 x CD3-VH-G) VH 1: QVQLVESGGGVVQPGRSLRLSCAASGFTFSSYGMHWVRQAPGKGLEWVAVISYAGNNKYYADSVKGRFTVSRDNSKKTLYLQMNSLRSEDTAVYYCAKDSYYDFLTDPDVLDIWGQGTMVTVSS VH 2: EVQLVESGGGLVQPGRSLRLSCAASGFTFDDYSMHWVRQAPGKGLEWVSGISWNSGSKGYADSVKGRFTISRDNAKNSLYLQMNSLRAEDTALYYCAKYGSGYGKFYHYGLDVWGQGTTVTVSS VL: DIQMTQSPSSLSASVGDSVTITCRASQSINNYLNWYQQKPGKAPKLLIYTASSLLSGVPSRFSGSGSGTDFTLTISGLHPEDFATYFCQQSFSTPPITFGQGTRLDIK	
				277 nM	1.19 nM		0.00597 nM	0.00128 nM	185 nM	1.8 min	0.00637 s⁻¹	34400 M⁻¹ s⁻¹		BSPSMA/CD3-1000 (bispecific antibody, IgG4, V domains shown, modified (chimeric) IgG4 Fc domain; also called PSMA-VH-11810 x CD3-VH-G10) VH 1: QVQLVESGGGVVQPGRSLRLSCAASGFTFSSYGMHWVRQAPGKGLEWVAVISYAGNNKYYADSVKGRFTVSRDNSKKTLYLQMNSLRSEDTAVYYCAKDSYYDFLTDPDVLDIWGQGTMVTVSS VH 2: EVQLVESGGGLVQPGRSLRLSCAASGFTFDDYSMHWVRQAPGKGLEWVSGISWNSGSKGYADSVKGRFTISRDNAKNSLYLQMNSLRAEDTALYYCAKYGSGYGKFYYYGLDVWGQGTTVTVSS VL: DIQMTQSPSSLSASVGDSVTITCRASQSINNYLNWYQQKPGKAPKLLIYTASSLLSGVPSRFSGSGSGTDFTLTISGLHPEDFATYFCQQSFSTPPITFGQGTRLDIK	
			6140 nM	210 nM	2.09 nM	0.0139 nM		0.00611 nM	334 nM	2 min	0.00577 s⁻¹	17300 M⁻¹ s⁻¹	0.00832 nM	BSPSMA/CD3-005 (bispecific antibody, IgG4, V domains shown, modified (chimeric) IgG4 Fc domain; also called PSMA-VH-11810 x CD3-VH-G20) VH 1: QVQLVESGGGVVQPGRSLRLSCAASGFTFSSYGMHWVRQAPGKGLEWVAVISYAGNNKYYADSVKGRFTVSRDNSKKTLYLQMNSLRSEDTAVYYCAKDSYYDFLTDPDVLDIWGQGTMVTVSS VH 2: EVQLVESGGGLVQPGRSLRLSCAASGFTFDDYSMHWVRQAPGKGLEWVSGISWNSGSIGYADSVKGRFTISRDNAKNSLYLQMNSLRAEDTALYYCAKYGSGYGKFYYYGMDVWGQGTTVTVSS VL: DIQMTQSPSSLSASVGDSVTITCRASQSINNYLNWYQQKPGKAPKLLIYTASSLLSGVPSRFSGSGSGTDFTLTISGLHPEDFATYFCQQSFSTPPITFGQGTRLDIK	
			170 nM	31.9 nM	1.3 nM				53.3 nM	3.5 min	0.00331 s⁻¹	62100 M⁻¹ s⁻¹		BSPSMA/CD3-1400 (bispecific antibody, IgG4, V domains shown, modified (chimeric) IgG4 Fc domain; also called PSMA-VH-11810 x CD3-VH-G14) VH 1: QVQLVESGGGVVQPGRSLRLSCAASGFTFSSYGMHWVRQAPGKGLEWVAVISYAGNNKYYADSVKGRFTVSRDNSKKTLYLQMNSLRSEDTAVYYCAKDSYYDFLTDPDVLDIWGQGTMVTVSS VH 2: EVQLVESGGGLVQPGRSLRLSCAASGFTFDDYSMHWVRQAPGKGLEWVSGISWNSGSIGYADSVKGRFTISRDNAKNSLYLQMNSLRAEDTALYYCAKYGSGYGKFYHYGMDVWGQGTTVTVSS VL: DIQMTQSPSSLSASVGDSVTITCRASQSINNYLNWYQQKPGKAPKLLIYTASSLLSGVPSRFSGSGSGTDFTLTISGLHPEDFATYFCQQSFSTPPITFGQGTRLDIK	
				274 nM	1.43 nM		0.0035 nM	0.00112 nM	113 nM	2.3 min	0.00495 s⁻¹	43800 M⁻¹ s⁻¹		BSPSMA/CD3-900 (bispecific antibody, IgG4, V domains shown, modified (chimeric) IgG4 Fc domain; also called PSMA-VH-11810 x CD3-VH-G9) VH 1: QVQLVESGGGVVQPGRSLRLSCAASGFTFSSYGMHWVRQAPGKGLEWVAVISYAGNNKYYADSVKGRFTVSRDNSKKTLYLQMNSLRSEDTAVYYCAKDSYYDFLTDPDVLDIWGQGTMVTVSS VH 2: EVQLVESGGGLVQPGRSLRLSCAASGFTFDDYSMHWVRQAPGKGLEWVSGISWNSGSKGYADSVKGRFTISRDNAKNSLYLQMNSLRAEDTALYYCAKDGSGYGKFYHYGLDVWGQGTTVTVSS VL: DIQMTQSPSSLSASVGDSVTITCRASQSINNYLNWYQQKPGKAPKLLIYTASSLLSGVPSRFSGSGSGTDFTLTISGLHPEDFATYFCQQSFSTPPITFGQGTRLDIK	
3.13e-13 M	0.762 nM	3.44e-12 M												H1H5780P (antibody, human IgG1, V domains shown, H1H: human IgG1 Fc) VH: EVQLVESGGGLVQPGRSLRLSCAASGFTFDDYAMHWVRQAPGKGLEWVSGISWNGGSKDYADSVKGRFTISRDNTRNSLSLQMNSLRIEDTALYYCAKDKSGYGSFYYGLDVWGQGTTVTVSS VL: EIVLTQSPGTLSLSPGDRATLSCRASQSIRSIYLAWYQQKPGQAPRLLIHGASTRATGIPDRFSGSGSGTDFTLTISRLEPEDFAVYYCQQRVSSPYTFGQGTKLEIK	4.03 pM
7.92e-13 M	1.23 nM	6.08e-12 M												H1H5781P (antibody, human IgG1, V domains shown, H1H: human IgG1 Fc) VH: EVQLVESGGGLVQPGRSLRLSCAASGFTFDDFTMHWVRQAPGKGLEWVSDISWNSGSIDYADSVKGRFTISRDNARNSLFLQMSSLRTEDTASYYCIKDKSGYGSYNYGLDVWGQGTTVTVSS VL: EIVLTQSPGTLSLSPGDRATLSCRASQSVSSIYLAWYQQKPGQAPRLLIHGASTRATGIPDRFSGSGSGTDFTLTISRLEPEDFALYYCHQRVSSPYTFGQGTKLEIK	1.83 pM
5.93e-13 M	0.685 nM	5.04e-12 M												H1H5778P (antibody, human IgG1, V domains shown, H1H: human IgG1 Fc) VH: EVQLVESGGGLVQPGRSLRLSCVASGFTFADFTMHWVRQAPGKGLEWVSGISWNSNSIDYADSVKGRFTISRDNAKKSLFLQMSSLRAEDTALYYCVKDRSGYSRFYYGMDVWGQGTTVTVSS VL: EIVMTQSPATLSVSPGERAILSCRASQNINSNLAWYQQKPGQAPRLLIYGASTRATGVPARFSGSGSGTEFTLTIRSLQSEDFAVYYCQQYYNWPITFGHGTRLEIK	0.341 pM

Reference: patent US20190127480A1 (Regeneron, published 2019)
